According to article PMC11263391, “Molecular insights into degron recognition by CRL5^ASB7 ubiquitin ligase” (Nature Communications, 2024):

Target: ASB7-Elongin B-Elongin C ternary complex (human), Q9H672
Assay: ITC; peptide (0.8–4 mM) titrated into the ASB7 complex (39–156 µM); 16 °C; 20 mM Tris-HCl pH 7.5, 150 mM NaCl; MicroCal PEAQ-ITC

Chain of ASB7-Elongin B-Elongin C ternary complex (human), Q9H672 (Q9H672 11-318, chain 1 of 3): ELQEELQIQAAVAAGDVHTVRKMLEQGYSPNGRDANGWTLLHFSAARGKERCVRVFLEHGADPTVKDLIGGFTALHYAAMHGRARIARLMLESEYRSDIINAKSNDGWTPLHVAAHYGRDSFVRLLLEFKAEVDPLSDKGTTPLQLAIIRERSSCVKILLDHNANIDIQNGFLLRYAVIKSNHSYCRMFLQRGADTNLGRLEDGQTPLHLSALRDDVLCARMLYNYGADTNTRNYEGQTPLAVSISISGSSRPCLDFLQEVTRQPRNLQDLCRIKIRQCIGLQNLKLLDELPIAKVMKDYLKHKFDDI
Chain of ASB7-Elongin B-Elongin C ternary complex (human), Q9H672 (Q15370 1-104, chain 2 of 3, further chain): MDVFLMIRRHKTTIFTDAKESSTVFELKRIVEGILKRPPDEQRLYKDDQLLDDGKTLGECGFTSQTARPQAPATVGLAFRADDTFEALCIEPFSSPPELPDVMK
Chain of ASB7-Elongin B-Elongin C ternary complex (human), Q9H672 (Q15369 17-112, chain 3 of 3, further chain): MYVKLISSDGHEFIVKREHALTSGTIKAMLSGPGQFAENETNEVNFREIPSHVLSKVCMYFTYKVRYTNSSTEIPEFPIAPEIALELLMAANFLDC

Row | Binder | fold decrease in binding affinity against the LZTS1-degron | Kd
1 | ELESLMKEQDLLETKLR (modifications not checked) [LZTS1 17-residue degron] | 6 fold | –
2 | ELEKAKQECQDLKGKLEKCCRH (modifications not checked) [CEP152-degron 23-residue peptide] | – | 3.8 µM
